The assay concerns the target T1, GST alone (UniProt P08515 1-218 = GST).
T1 construct: Negative control
Description: pull-down on GST beads, western blot with CS4E. How it is done: Fifteen µl of a 50% slurry of GST-S4BP bound to GST beads were incubated with 10 µg of soluble pMal-syndecan in 0.5 ml of lysis buffer that contained 1% BSA. After incubation for 30 minutes at room temperature with constant mixing, the reaction mixtures were placed on ice and washed 3× with lysis buffer followed by, 3 washes with lysis buffer containing 1 M NaCl. Protein bound to GST-S4BP beads was solubilized in SDS-PAGE buffer, electrophoresed, transferred to an Immobilon-P membrane and analyzed for bound syndecan-4 core protein using the avian specific syndecan-4 polyclonal antibody CS4E (Baciu et al. (1994) *J. Biol. Chem.* 269:696–703).

T1 sequence (P08515 whole entry): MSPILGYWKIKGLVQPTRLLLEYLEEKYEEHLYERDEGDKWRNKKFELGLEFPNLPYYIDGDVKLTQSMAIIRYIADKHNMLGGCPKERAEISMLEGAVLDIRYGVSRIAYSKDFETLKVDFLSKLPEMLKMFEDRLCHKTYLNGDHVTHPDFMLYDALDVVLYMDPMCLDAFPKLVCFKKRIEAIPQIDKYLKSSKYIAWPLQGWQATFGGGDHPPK

B1: pMal/syndecan-4 fusion protein, full length syndecan-4 core protein (S-4) (other, avian, UniProt P49416 20-197, looked up, not shown: large carriers)
chain: ESVRETETMDARWLDNVGSGDLPDDEDIGEFTPHLTSDEFDIDDTSGSGDYSDYDDAIYLTTVDTPAISDNYIPGDTERKMEGEKKNTMLDNEIIPDKASPVEANLSNKISMASTANSSIFERTEVLTALIAGGAVGLLFAVFLILLLVYRMKKKDEGSYDLGKKPIYKKAPTNEFYA
notes: Bacterially expressed, soluble, purified on a maltose column
On to B1, for which the binding result was “no binding (tested: 10 µg of soluble pMal-syndecan in 0.5 ml)”.

These data come from US6566489 (GENERAL HOSPITAL, dated 2003).
